Patent publication US20060239990A1 (published 2006)

T1: IκB-α, endogenous in 293 cells (human, UniProt P25963 1-317)
T1 construct: also called endogenous IκB-α
T1 sequence (looked up): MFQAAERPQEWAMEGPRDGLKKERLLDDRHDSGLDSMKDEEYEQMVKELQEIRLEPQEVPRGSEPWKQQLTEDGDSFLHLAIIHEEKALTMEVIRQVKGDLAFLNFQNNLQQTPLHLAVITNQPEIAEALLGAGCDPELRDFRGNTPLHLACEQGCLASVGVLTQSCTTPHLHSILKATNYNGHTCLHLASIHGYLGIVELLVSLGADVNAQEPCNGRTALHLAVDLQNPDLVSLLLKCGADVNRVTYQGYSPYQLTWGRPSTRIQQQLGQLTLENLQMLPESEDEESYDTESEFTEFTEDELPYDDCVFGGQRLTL


Legend:
[1] = target: T2, RelA (p65) in 293 cells (UniProt Q04206 1-551); assay: immunoprecipitation with anti-HA antibody from transfected 293 cells, immunoblot for p65
T2 construct: also called endogenous p65
Text: (§1) To map IκB-α domains that interacted with PRMT2, 293 cells were transfected with HA-tagged PRMT2 (FIG. 5C) and His-tagged derivatives of the indicated IκB-α expression vectors (FIG. 5B) as indicated. 24 hrs later cells were harvested in cell lysis buffer and cell lysates were immunoprecipitated with agarose-conjugated antibody to His (IκB-α) (FIG. 5D, lanes 1-4) and HA (PRMT2) (FIG. 5D, lanes 5-6), fractionated by SDS-PAGE and analyzed by immunoblotting with antibody to HA to detect PRMT2 ((FIG. 5D lanes 1, 2 and lanes 5, 6) and His (FIG. 5D, lanes 3, 4). To map the region of PRMT2 that interacted with endogenous IκB-α and p65, 293 cells were transfected with HA-tagged PRMT2 (FIG. 5C) derivatives as indicated. Cells were harvested 24 hrs after transfection in cell lysis buffer, immunoprecipitated with agarose-conjugated antibody to HA to detect PRMT2 and derivatives (FIG. 5E, lanes 7-15), fractionated by SDS-PAGE and analyzed by immunoblotting with antibody to p65 (FIG. 5E, lanes 7-9), IκB-α (FIG. 5E, lanes 10-12) or HA (FIG. 5E, lanes 13-15).
A polyclonal antibody to recombinant PRMT2 was used to examine the association between endogenous PRMT2 and IκB-α in vivo. […] The domain of IκB-α required for association with PRMT2 was mapped using in vivo immunoprecipitation assays where HA-tagged PRMT2 was coexpressed with truncation mutants of His-tagged IκB-α (FIG. 5B) in 293 cells. The ankyrin domain was both necessary and sufficient for this association (FIG. 5D, lanes 1 and 2). The domain of PRMT2 that interacted with endogenous IκB-α was mapped by immunoprecipitation following expression HA-tagged PRMT2 truncation mutants (FIG. 5C). […] When the ratios of PRMT2 or PRMT2-A binding to IκB-α were compared, both interacted with IκB-α with similar affinity.

[2] = target: T1, IκB-α, endogenous in 293 cells; assay: immunoprecipitation with anti-HA antibody from transfected 293 cells, immunoblot for endogenous IκB-α
Text: as §1
(§2) A polyclonal antibody to recombinant PRMT2 was used to examine the association between endogenous PRMT2 and IκB-α in vivo. […] The domain of IκB-α required for association with PRMT2 was mapped using in vivo immunoprecipitation assays where HA-tagged PRMT2 was coexpressed with truncation mutants of His-tagged IκB-α (FIG. 5B) in 293 cells. […]

[3] = target: T1, IκB-α, endogenous in 293 cells; assay: immunoprecipitation with anti-HA antibody from transfected 293 cells, immunoblot for IκB-α
Text: as §1, §2

T2 sequence (Q04206 whole entry): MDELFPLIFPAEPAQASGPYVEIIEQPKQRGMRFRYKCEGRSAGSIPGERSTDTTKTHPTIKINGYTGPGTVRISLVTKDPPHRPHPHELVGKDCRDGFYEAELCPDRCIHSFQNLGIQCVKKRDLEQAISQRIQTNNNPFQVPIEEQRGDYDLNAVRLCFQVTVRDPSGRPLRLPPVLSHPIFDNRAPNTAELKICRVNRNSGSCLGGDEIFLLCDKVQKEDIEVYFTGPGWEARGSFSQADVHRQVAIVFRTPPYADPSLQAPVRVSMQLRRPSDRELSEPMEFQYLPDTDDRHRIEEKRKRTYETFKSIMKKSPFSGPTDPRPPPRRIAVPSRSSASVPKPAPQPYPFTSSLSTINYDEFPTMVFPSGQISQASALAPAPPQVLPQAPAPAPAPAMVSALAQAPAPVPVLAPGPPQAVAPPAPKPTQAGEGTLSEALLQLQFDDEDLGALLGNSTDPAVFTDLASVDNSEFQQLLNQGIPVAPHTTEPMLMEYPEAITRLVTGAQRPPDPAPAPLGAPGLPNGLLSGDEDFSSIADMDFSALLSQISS

| binding result [1] | binding result [2] | binding result [3] | Binder |
| --- | --- | --- | --- |
| no binding | binds |  | HA-tagged PRMT2-A (alternative splice variant, first 218 amino acids of PRMT2) (enzyme, Expressed by transfection in 293 cells; not shown: HA tag at the C-terminus) MATSGDCPRSESQGEEPAECSEAGLLQEGVQPEEFVAIADYAATDETQLSFLRGEKILILRQTTADWWWGERAGCCGYIPANHVGKHVDEYDPEDTWQDEEYFGSYGTLKLHLEMLADQPRTTKYHSVILQNKESLTDKVILDVGCGTGIISLFCAHYARPRAVYAVEASEMAQHTGQLVLQNGFADIITVYQQKVEDVVLPEKVDVLVSEWMGTCLL |
| no binding |  | no binding | HA-tagged PRMT2-N (first 95 amino acids of PRMT2) (enzyme, Expressed by transfection in 293 cells; not shown: HA tag at the C-terminus) MATSGDCPRSESQGEEPAECSEAGLLQEGVQPEEFVAIADYAATDETQLSFLRGEKILILRQTTADWWWGERAGCCGYIPANHVGKHVDEYDPED |
